Experimental data as given in patent US20120321636A1 (UCB, published 2012).
One block for each molecule: values may come before it.

T1: sclerostin (Homo sapiens (Human), UniProt Q9BQB4 24-213)
T1 construct: also called SOST; Beer
T1 sequence: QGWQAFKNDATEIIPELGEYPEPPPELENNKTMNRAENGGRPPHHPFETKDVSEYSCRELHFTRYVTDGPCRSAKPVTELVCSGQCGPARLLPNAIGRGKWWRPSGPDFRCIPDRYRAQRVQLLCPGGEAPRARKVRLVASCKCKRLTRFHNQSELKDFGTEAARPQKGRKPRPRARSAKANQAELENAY

B1: BMP-6 (ligand, UniProt P22004 382-513, looked up)
chain: QQSRNRSTQSQDVARVSSASDYNSSELKTACRKHELYVSFQDLGWQDWIIAPKGYAANYCDGECSFPLNAHMNATNHAIVQTLVHLMNPEYVPKPCCAPTKLNAISVLYFDDNSNVILKKYRNMVVRACGCH
notes: also called bone morphogenic protein 6
B2: DAN (ligand)
chain: AAPPPINKLALFPDKSAWCEAKNITQIVGHSGCEAKSIQNRACLGQCFSYSVPNTFPQSTESLVHCDSCMPAQSMWEIVTLECPGHEEVPRVDKLVEKILHCSCQACGKEPSHEGLSVYVQGEDGPGSQPGTHPHPHPHPHPGGQTPEPEDPPGAPHTEEEGAED
B3: BMP receptor II-FC fusion protein (Fc fusion, not shown: a dimerising Fc or GST; small tags and cut ends)
chain: SQNQERLCAFKDPYQQDLGIGESRISHENGTILCSKGSTCYGLWEKSKGDINLVKQGCWSHIGDPQECHYEECVVTTTPPSIQNGTYRFCCCSTDLCNVNFTENFPPPDTTPLSPPHSFNRDET
notes: also called BMPR-II

Legend:
[1] = molecular target: B1; experiment: ELISA-based competition: 10-fold molar excess of receptor-Fc against coated sclerostin for BMP-6
[2] = molecular target: B1; experiment: ELISA-based competition: receptor-Fc against coated sclerostin for BMP-6 (11 nM)
[3] = molecular target: T1, sclerostin; experiment: ELISA, BMP-6 on a sclerostin-coated surface (300 ng/well)
Procedure: (§1) A 10-fold molar excess of the BMP receptor was sufficient to reduce binding of sclerostin to BMP-6 by approximately 50%. This competition was also observed with a BMP receptor II-FC fusion protein (IC₅₀=36 nM) and DAN (IC₅₀=43 nM).

[4] = molecular target: B1; experiment: ELISA-based competition: DAN against coated sclerostin for BMP-6
[5] = molecular target: B1; experiment: ELISA-based competition: receptor-Fc against coated sclerostin for BMP-6
Procedure: as §1

percent reduction of sclerostin binding to BMP-6 at 10-fold molar excess [1]: 50%
IC50 [2]: 114 nM
Molecule: BMP receptor IA (FC fusion construct)

Molecule: B1
Kd [3]: 3.4 nM

Molecule: B2
IC50 [4]: 43 nM

Molecule: B3
IC50 [5]: 36 nM
